Measured values taken from patent US20110117082A1 (SHANGHAI FUDAN ZHANGJIANG BIO PHARMACEUTICAL, published 2011).

T1: LT28-171 (lymphotoxin) (UniProt P01374)
T1 sequence (looked up): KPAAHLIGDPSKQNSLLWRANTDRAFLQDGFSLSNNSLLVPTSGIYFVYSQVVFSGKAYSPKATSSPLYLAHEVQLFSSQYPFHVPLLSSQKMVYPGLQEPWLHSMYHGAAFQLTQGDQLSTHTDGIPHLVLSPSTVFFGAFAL

B1: wild-type soluble human TNFRp75:Fc fusion protein (ENBREL from AMGEN) (Fc fusion, not shown: a dimerising Fc or GST)
chain: LPAQVAFTPYAPEPGSTCRLREYYDQTAQMCCSKCSPGQHAKVFCTKTSDTVCDSCEDSTYTQLWNWVPECLSCGSRCSSDQVETQACTREQNRICTCRPGWYCALSKQEGCRLCAPLRKCRPGFGVARPGTETSDVVCKPCAPGTFSNTTSSTDICRPHQICNVVAIPGNASMDAVCTSTSPTRSMAPGAVHLPQPVSTRSQHTQPTPEPSTAPSTSFLLPMGPSPPAEGSTGD
B2: LT28-171 (lymphotoxin) (ligand, UniProt P01374 62-205, looked up)
chain: T1 sequence (looked up)
notes: range 28-171; these probably count on the mature protein (171 residues), not on the precursor

What was measured:
[1] = target: tumor necrosis factor α (TNFα) (UniProt P01375); assay: cell-based or functional assay
tumor necrosis factor α (TNFα), sequence (P01375 77-233 limits assumed): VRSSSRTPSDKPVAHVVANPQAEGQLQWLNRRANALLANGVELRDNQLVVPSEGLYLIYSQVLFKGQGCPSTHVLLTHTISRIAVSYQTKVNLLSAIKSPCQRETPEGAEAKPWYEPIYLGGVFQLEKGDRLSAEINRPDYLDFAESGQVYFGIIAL

[2] = target: T1, LT28-171 (lymphotoxin); assay: cell-based or functional assay
[3] = target: B2; assay: cell-based or functional assay
[4] = target: B1; assay: SPR, Biacore3000, receptor:Fc amine-coupled to CM5 chip, ligand in flow, 1:1 Langmuir fit
Description: The interaction of the receptor and the ligand was measured in kinetics assay using Wizard of Biacore3000. All the ligands were applied at a flow rate of 40 μL/min for 1 min, dissociated for 2 min, and then 50 mM NaOH and HBS-P buffer were applied at a flow rate of 100 μL/min for 15s and 60s to regenerate the ligands (50 mM NaOH and HBS-P buffer were applied at a flow rate of 100 μL/min for 10s and 30s to regenerate in the primary screening). The experimental data were fit to the 1:1 Langmuir association model in the analysis software of Biacore3000 to provide the specific kinetic constant.

Molecule TNFRp75 (E92N, W89F): Fc fusion protein has an EC50(ng/ml) of the neutralizing activity of the mutants (Example 9: against the cytotoxicity of TNFα) [1] of 1020 ng/mL, an Enhancement of the neutralizing activity against TNFα [1] of 128% and an EC50(ng/ml) of the neutralizing activity of the mutants against LT [2] of 7.56 ng/mL. For the same molecule, the Enhancement of the neutralizing activity against LT [2] was 308%.

TNFRp75 (E92A): Fc fusion protein was tested, and the EC50(ng/ml) of the neutralizing activity of the mutants (Example 9: against the cytotoxicity of TNFα) [1] was 6.34 ng/mL, the Enhancement of the neutralizing activity against TNFα [1] was 130% and the EC50(ng/ml) of the neutralizing activity of the mutants against LT [2] was 7.93 ng/mL. For the same molecule, the Enhancement of the neutralizing activity against LT [2] was 291%.

For TNFRp75 (E92H): Fc fusion protein, the EC50(ng/ml) of the neutralizing activity of the mutants (Example 9: against the cytotoxicity of TNFα) [1] was 9.03 ng/mL, the Enhancement of the neutralizing activity against TNFα [1] was 129% and the EC50(ng/ml) of the neutralizing activity of the mutants against LT [2] was 3.74 ng/mL. The Enhancement of the neutralizing activity against LT [2] was 1180%.

In the case of TNFRp75 (E92S, W89Y): Fc fusion protein, the EC50(ng/ml) of the neutralizing activity of the mutants (Example 9: against the cytotoxicity of TNFα) [1] is reported as 12.2 ng/mL, the Enhancement of the neutralizing activity against TNFα [1] is reported as 133% and the EC50(ng/ml) of the neutralizing activity of the mutants against LT [2] is reported as 6.28 ng/mL. The Enhancement of the neutralizing activity against LT [2] was 368%.

In the case of TNFRp75 (E92N): Fc fusion protein, the EC50(ng/ml) of the neutralizing activity of the mutants (Example 9: against the cytotoxicity of TNFα) [1] is reported as 5.68 ng/mL, the Enhancement of the neutralizing activity against TNFα [1] is reported as 131% and the neutralizing activity to TNFα relative to wild-type soluble TNFRp75: Fc (ENBREL from AMGEN) (times that of wild-type TNFRp75: Fc) [1] is reported as 1.33. It also gave an EC50(ng/ml) of the neutralizing activity of the mutants against LT [2] of 7.94 ng/mL and an Enhancement of the neutralizing activity against LT [2] of 277%.

With B1 the “EC50 of the neutralizing activity on LT” value [3] was 22.3 ng/mL.

For B2, the Kd [4] was 0.134 nM, the koff [4] was 6.99e-07 s⁻¹ and the kon [4] was 5230 M⁻¹ s⁻¹.
